# Source: publication PMC4559962, “Wss1 metalloprotease partners with Cdc48/Doa1 in processing genotoxic SUMO conjugates” (eLife, 2015)
# B1: his6-Flag (HF)-Doa1 (natural protein, S. cerevisiae, UniProt P36037 1-715, looked up)
# chain: MGYQLSATLKGHDQDVRDVVAVDDSKVASVSRDGTVRLWSKDDQWLGTVVYTGQGFLNSVCYDSEKELLLFGGKDTMINGVPLFATSGEDPLYTLIGHQGNVCSLSFQDGVVISGSWDKTAKVWKEGSLVYNLQAHNASVWDAKVVSFSENKFLTASADKTIKLWQNDKVIKTFSGIHNDVVRHLAVVDDGHFISCSNDGLIKLVDMHTGDVLRTYEGHESFVYCIKLLPNGDIVSCGEDRTVRIWSKENGSLKQVITLPAISIWSVDCMSNGDIIVGSSDNLVRIFSQEKSRWASEDEINELSTQVEKSTISSKTIEFDESKLSPYEILQSPGRKEGQIVVVKSPQGTIEAHQFSNSSWKKVGDVVGAGATGNDKKIEFEGKTYDYVFDVDIEDGKPPLKLPINVSDNPYTAADNFLARYELPMSYRDQVVQFILKNTNGISLDQPNDNASSSAVSPSKTSVMKVLPVKQYLIMENYNPDTIFNGIVKINSNEKTFDDEILAQIGGALHDIDESWELLLSFANTIRSNWEIKTPAYDIVRLIVKKLPYSSDIKDYIEEGLGNKNITLTMLTVRILVNCFNNENWGVKLLESNQVYKSIFETIDTEFSQASAKQSQNLAIAVSTLIFNYSALVTKGNSDLELLPIVADAINTKYGPLEEYQECEEAAYRLTVAYGNLATVEPTLRQFANSVTWLANIKRSYGNVPRFKDIFDDLS
# notes: Doa1, Cdc48 cofactor
# B2: GST-Cdc48 (full length) (enzyme, S. cerevisiae, UniProt P25694 1-835, looked up)
# chain: MGEEHKPLLDASGVDPREEDKTATAILRRKKKDNMLLVDDAINDDNSVIAINSNTMDKLELFRGDTVLVKGKKRKDTVLIVLIDDELEDGACRINRVVRNNLRIRLGDLVTIHPCPDIKYATRISVLPIADTIEGITGNLFDVFLKPYFVEAYRPVRKGDHFVVRGGMRQVEFKVVDVEPEEYAVVAQDTIIHWEGEPINREDEENNMNEVGYDDIGGCRKQMAQIREMVELPLRHPQLFKAIGIKPPRGVLMYGPPGTGKTLMARAVANETGAFFFLINGPEVMSKMAGESESNLRKAFEEAEKNAPAIIFIDEIDSIAPKRDKTNGEVERRVVSQLLTLMDGMKARSNVVVIAATNRPNSIDPALRRFGRFDREVDIGIPDATGRLEVLRIHTKNMKLADDVDLEALAAETHGYVGADIASLCSEAAMQQIREKMDLIDLDEDEIDAEVLDSLGVTMDNFRFALGNSNPSALRETVVESVNVTWDDVGGLDEIKEELKETVEYPVLHPDQYTKFGLSPSKGVLFYGPPGTGKTLLAKAVATEVSANFISVKGPELLSMWYGESESNIRDIFDKARAAAPTVVFLDELDSIAKARGGSLGDAGGASDRVVNQLLTEMDGMNAKKNVFVIGATNRPDQIDPAILRPGRLDQLIYVPLPDENARLSILNAQLRKTPLEPGLELTAIAKATQGFSGADLLYIVQRAAKYAIKDSIEAHRQHEAEKEVKVEGEDVEMTDEGAKAEQEPEVDPVPYITKEHFAEAMKTAKRSVSDAELRRYEAYSQQMKASRGQFSNFNFNDAPLGTTATDNANSNNSAPSGAGAAFGSNAEEDDDLYS
# notes: Cdc48, AAA ATPase; source: expressed in bacteria, purified
# B3: MBP-Wss1 (wild type) (enzyme, S. cerevisiae, UniProt P38838 1-269, looked up)
# chain: MKTEGIKSPSAKYHDMAGSQRIPHKNPHIQKVAVLQSKPNKEDALNLIKEIAHKVSYLMKENHFKVTNLVEFYPRDQRLLGMNVNHGSKIMLRLRCSTDEFQFLPMECIMGTMLHELTHNLFGPHDKKFYNKLDELIGRQWVIEQRGLYDTFLGNGQRLGGRANLRSNRYPMTGISTNTGIVRKRGKGVKLGSLHPEGISSIDRGNSPRELAAFAAERRYRDDRWCGETKNNKDQIISDNISSSLEVVILDDDDEVLPGDTLIEVIDLT
# notes: Wss1, yeast metalloprotease; Expressed with the pMAL-c2 vector; also called MBP-Wss1 WT; Wss1-beads (CNBr-crosslinked MBP-Wss1 beads); source: E. coli BL21pLysS (DE3), purified on amylose resin, eluted with maltose
# Columns and labels:
# Details in all cases: both partners purified
# [1] = target: B2; assay: pull-down; Cdc48 complexes preformed from purified GST-Cdc48 with a double molar excess of adaptors; MBP-Wss1 added in stoichiometric amount; glutathione beads; PAGE with Coomassie staining, ImageJ
# [2] = target: B3; assay: pull-down; purified MBP-Wss1 proteins on amylose beads with purified Cdc48 or adaptor proteins; PAGE with Coomassie staining, western blot with α-His6, ImageJ
# [3] = target: B1; assay: pull-down; purified HA-Wss1 (full length or truncated) on anti-HA beads with purified His6-Cdc48, GST-Cdc48 or HF-Doa1 (full length or truncated); western blot
# [4] = target: B1; assay: pull-down; purified MBP-Wss1 proteins on amylose beads with purified Cdc48 or adaptor proteins; PAGE with Coomassie staining, western blot with α-His6, ImageJ
binder,measurement,setting,value
B1,stoichiometry N,[1],1
B2,stoichiometry N,[2],1
"HA-Wss1 (recombinant, wild type) (enzyme, S. cerevisiae, UniProt P38838 1-269, looked up, Wss1, yeast metalloprotease (WLM family); Produced with the pRSET-B vector; also called WT; WT-Wss1; source: E. coli ArcticExpress (DE3), soluble, purified on anti-HA beads and eluted with HA peptide) MKTEGIKSPSAKYHDMAGSQRIPHKNPHIQKVAVLQSKPNKEDALNLIKEIAHKVSYLMKENHFKVTNLVEFYPRDQRLLGMNVNHGSKIMLRLRCSTDEFQFLPMECIMGTMLHELTHNLFGPHDKKFYNKLDELIGRQWVIEQRGLYDTFLGNGQRLGGRANLRSNRYPMTGISTNTGIVRKRGKGVKLGSLHPEGISSIDRGNSPRELAAFAAERRYRDDRWCGETKNNKDQIISDNISSSLEVVILDDDDEVLPGDTLIEVIDLT",binding result,[3],binds
B3,binding result,[4],binds
same,stoichiometry N,[1],1
